Experimental data: patent US20230192834A1
Numbering of substitutions follows the chain as printed.

B1: Caninized anti-TGFβ1,2,3 antibody VH4.11 - VL3 (antibody, V domains shown)
VH: QVQLVQSGAEVKKPGSSVKVSCKASGYTFSSNVISWVRQAPGKGLQWVGGVIPIVDIANYAQRFKGRVTLTADTSTNTVYMELSNLRTEDTAVYYCARTLGLVLDAMDYWGQGTLVTVSS
VL: EIVMTQSPASLSLSQEEKVTITCRASQSLGSSYLAWYQQKPGQAPKLLIYGASSRAPGVPSRFSGSGSGTDFSFTISSLEPEDVAVYYCQQYADSPITFGQGTKLEIKR
B2: Caninized anti-TGFβ1,2,3 antibody VH5.10 - VL3 (antibody, V domains shown)
VH: EVQLVESGGDLVKPGGSLRLSCVASGFTFSSNVISWVRQAPGQGLEWMGGVIPIVDIANYAQRFKGRVTLTADTSTNTVYMELSNLRTEDTAVYYCARTLGLVLDAMDYWGQGTLVTVSS
VL: B1 VL
B3: Caninized anti-TGFβ1,2,3 antibody VH3.1 - VL3 (antibody, V domains shown)
VH: DVQLVESGGDLVKPGGSLRLTCVASGYTFSSNVMHWVRQAPGKGLQWVAYVIPIVDIAYYADSVKGRFTISIDNSKNTLYLQMNSLKTEDTATYYCARTLGLVLDAMDYWGQGTLVTVSS
VL: B1 VL
B4: Caninized anti-TGFβ1,2,3 antibody VH4.11 - VL2 (antibody, V domains shown)
VH: B1 VH
VL: ETVLTQSPGTLSLSPGERATLSCRASQSLGSSYLAWYQQKPGQAPRLLIYGASSRAPGVPARFSGSGSGTDFTLTISSLEPEDFAVYYCQQYADSPITFGQGTKLEIKR
B5: Caninized anti-TGFβ1,2,3 antibody VH4.7 - VL2 (antibody, V domains shown)
VH: B1 VH with L70I, T74E, N77S, V79T, N85S, T88S, R98S
VL: B4 VL
B6: Felinized anti-TGFβ1,2,3 antibody VH2.2 - VL3 (antibody, V domains shown)
VH: QVLLVQSGADVRKPGASVKIFCKASGYTFSSNVMHWVRQTPAQGFEWMGSVIPIVDIATYARRFQGRLVLTADTSTNTAYMELRSLKSADTAVYYCARTLGLVLDAMDYWGQGSLVTVSS
VL: EIQMTQSPSSLSASPGDRVTITCRASQSLGSSYLAWYQQKPGKVPKLLIYGASSRAPGVPSRFSGSGSGTDFTLTISSLEPEDAATYYCQQYADSPITFGQGTKLEIKR
B7: Felinized anti-TGFβ1,2,3 antibody VH2.8 - VL6 (antibody, V domains shown)
VH: QVQLVQSGAEVKKPGSSVKVSCKASGYTFSSNVISWVRQTPAQGFEWMGGVIPIVDIANYAQRFKGRLVLTADTSTNTAYMELRSLKSADTAVYYCASTLGLVLDAMDYWGQGTLVTVSS
VL: QSVLTQPPSVSGSLGQRVTISCRASQSLGSSYLAWYQQVPGRAPRLLIYGASSRAPGIPDRFSGSKSGTSGSLTITGLEADDEADYYCQQYADSPITFGGGTHLTVLG
B8: Caninized anti-TGFβ1,2,3 antibody VH4.5 - VL1 (antibody, V domains shown)
VH: EVQLVESGGDLVKPAGSLRLSCVASGYTFSSNVMSWVRQAPGKGLQWVGYVIPIVDIANYADAVKGRFTISRDNAKNTLYLQMNSLRVEDTAVYYCTRTLGLVLDAMDYWGQGTLVTVSS
VL: B4 VL with V59I, A61D, S78R, K104R
B9: Caninized anti-TGFβ1,2,3 antibody VH3.6 - VL2 (antibody, V domains shown)
VH: EVQLVQSAAEVKKPGASVKVSCKTSGYIFISNVISWVRQAPGQGLEWMGGVIPIVDIANYAQRFKGRVTITADESTSTTYMELSSLRSEDTAVYYCASTLGLVLDAMDYWGQGTLVTVSS
VL: B4 VL
B10: Caninized anti-TGFβ1,2,3 antibody VH3.1 - VL2 (ZTS-122) (antibody, V domains shown)
VH: B3 VH
VL: B4 VL
B11: Caninized anti-TGFβ1,2,3 antibody VH5.6 - VL2 (antibody, V domains shown)
VH: B2 VH with L70I, T74E, N77S, V79T, N85S, T88S, R98S
VL: B4 VL
B12: human: feline GC1008 chimera felchimGC1008 (antibody, V domains shown)
VH: QVQLVQSGAEVKKPGSSVKVSCTASGYTPSSNVISNVRQAPGQGLENNGGVIPIVDIANYAQRPKGRVTITADESTSTTYHELSSLRSEDTAVYYCASTLGLVLDAMDYHGQGTLVTVSS
VL: B4 VL with V59I, A61D, S78R, K104R
B13: Caninized anti-TGFβ1,2,3 antibody VH3.5 - VL2 (antibody, V domains shown)
VH: B9 VH with R38Q, Q43A, I70L, E74T, S77N, T79V, S85N, S88T
VL: B4 VL
B14: Caninized anti-TGFβ1,2,3 antibody VH4.5 - VL2 (ZTS-207) (antibody, V domains shown)
VH: B8 VH
VL: B4 VL

How the values were obtained:
TGFβ3 (R&D Systems) [1] = target: T1, TGFβ3 (R&D Systems); assay: cell-based or functional assay
T1 sequence (P10600 301-412, species assumed, looked up): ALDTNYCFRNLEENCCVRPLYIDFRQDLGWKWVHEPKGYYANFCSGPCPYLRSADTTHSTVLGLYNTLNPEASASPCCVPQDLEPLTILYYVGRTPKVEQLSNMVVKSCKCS

TGFβ1 (R&D Systems) [2] = assay: cell-based or functional assay
TGFβ1 (R&D Systems), sequence (P01137 279-390): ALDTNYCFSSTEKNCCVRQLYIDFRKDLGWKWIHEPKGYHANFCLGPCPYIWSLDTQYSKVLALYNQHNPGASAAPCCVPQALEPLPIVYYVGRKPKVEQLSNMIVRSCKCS

TGFβ2 (R&D Systems) [3] = target: T2, TGFβ2 (R&D Systems); assay: cell-based or functional assay
T2 sequence (P61812 303-414, species assumed, looked up): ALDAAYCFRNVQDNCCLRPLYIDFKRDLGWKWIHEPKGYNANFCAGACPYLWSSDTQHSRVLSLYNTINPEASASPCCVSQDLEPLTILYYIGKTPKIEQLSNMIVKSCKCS

TGFβ3 (R&D Systems) [4] = target: T1, TGFβ3 (R&D Systems); assay: SPR (Biacore T200), TGFβ amine-coupled to chip, 1:1 fit
TGFβ1 (R&D Systems) [5] = assay: as above
TGFβ2 (R&D Systems) [6] = target: T2, TGFβ2 (R&D Systems); assay: as above

| Binder | TGFb3 IC50 (SMAD3 phosphorylation in CMVICs, AlphaLISA) (TGFβ3 (R&D Systems) [1]) [µg/mL] | TGFb1 IC50 (SMAD3 phosphorylation in CMVICs, AlphaLISA) (TGFβ1 (R&D Systems) [2]) [µg/mL] | TGFb2 IC50 (SMAD3 phosphorylation in CMVICs, AlphaLISA) (TGFβ2 (R&D Systems) [3]) [µg/mL] | Kd (TGFβ3 (R&D Systems) [4]) [nM] | Kd (TGFβ1 (R&D Systems) [5]) [nM] | Kd (TGFβ2 (R&D Systems) [6]) [nM] |
| --- | --- | --- | --- | --- | --- | --- |
| B1 | 0.575 | 1.01 | 16.7 | 2.5 | 7.14 | 5.15 |
| B2 | 0.113 | 0.232 | 5.47 | 1.5 | 5.23 | 3.57 |
| B3 | 0.034 | 0.134 | 0.954 | 0.981 | 7.52 | 3.91 |
| B4 | 0.375 | 0.164 | 8.48 | 2.1 | 4.98 | 3.77 |
| B5 | – | 0.071 | 0.81 | 1.2 | 2.61 | 1.99 |
| B6 | – | 0.24 | 1.2 | 3.49 | 3.31 | 2.39 |
| B7 | – | 0.969 | 0.547 | 2.41 | 2.95 | 1.72 |
| B8 | 0.062 | 0.122 | 0.609 | 0.475 | 2.57 | 1.56 |
| B9 | 0.203 | 0.057 | 0.459 | 1.49 | 4.39 | 3.42 |
| B10 | 0.092 | 0.061 | 0.508 | 1.12 | 5.6 | 3.37 |
| B11 | 0.056 | 0.019 | 0.691 | 1.67 | 3.68 | 2.6 |
| B12 | 0.053 | 0.176 | 0.167 | 2.35 | 2.58 | 1.88 |
| B13 | 0.981 | 0.083 | 9.41 | 1.91 | 4.37 | 3.56 |
| B14 | 0.02 | 0.06 | 0.285 | 0.43 | 2.3 | 1.4 |
